Source: PMC11743793, “Structural insights into human topoisomerase 3β DNA and RNA catalysis and nucleic acid gate dynamics” (Nature Communications, 2025)
Where a chain is given by its changes, count along the chain named. One block for each binder: values may come before it.

Assays:
[1] = target: T1, human TOP3Bcore-K10M (1-612 aa) (human, UniProt O95985 1-612, K10M); assay: cryo-EM structure; cTOP3B heterodimer (wild type, Y336F or K10M; 3 mg/ml) mixed with equimolar gapped 43-mer DNA or RNA; 25 mM Bis-Tris pH 6.8, 0.1 M KCl, 0.5 mM MnCl2 (5 mM for the rejoining complexes), 0.1% octyl β-D-glucopyranoside, 4 mM DTT, 2% glycerol; RT; conditions: both partners purified
T1 construct: DNA topoisomerase 3-beta (TOP3B), human, core, residues 1-612, rejoining-deficient mutant; In the rejoining complexes Y336 carries the tyrosyl-phosphodiester linkage to the cleaved DNA/RNA (PTR336); also called TOP3B chain of cTOP3B-K10M; not shown: His8, N-terminal, cleaved; MBP, N-terminal, cleaved
T1 sequence (looked up): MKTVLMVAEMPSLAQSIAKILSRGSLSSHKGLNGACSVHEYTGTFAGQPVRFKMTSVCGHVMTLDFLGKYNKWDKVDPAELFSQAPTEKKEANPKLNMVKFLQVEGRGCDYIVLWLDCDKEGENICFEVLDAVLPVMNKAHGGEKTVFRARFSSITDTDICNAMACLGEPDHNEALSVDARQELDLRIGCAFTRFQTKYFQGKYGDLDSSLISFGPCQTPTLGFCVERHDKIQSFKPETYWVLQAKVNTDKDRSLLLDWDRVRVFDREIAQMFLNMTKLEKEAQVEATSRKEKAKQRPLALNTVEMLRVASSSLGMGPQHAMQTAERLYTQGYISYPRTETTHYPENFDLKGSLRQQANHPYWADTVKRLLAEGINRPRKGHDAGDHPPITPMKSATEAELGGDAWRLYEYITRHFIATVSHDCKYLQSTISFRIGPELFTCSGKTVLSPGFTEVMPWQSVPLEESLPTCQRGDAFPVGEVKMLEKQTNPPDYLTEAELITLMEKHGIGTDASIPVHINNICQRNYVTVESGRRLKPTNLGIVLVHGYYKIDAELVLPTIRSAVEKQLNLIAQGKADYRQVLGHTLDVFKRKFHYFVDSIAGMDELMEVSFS

[2] = target: T2, human TOP3Bcore-Y336F (1-612 aa) (human, UniProt O95985 1-612, Y336F); assay: as above; conditions: both partners purified
T2 construct: DNA topoisomerase 3-beta (TOP3B), human, core, residues 1-612, catalytic tyrosine changed to phenylalanine; also called TOP3B chain of cTOP3B-Y336F; not shown: His8, N-terminal, cleaved; MBP, N-terminal, cleaved
T2 sequence (looked up): T1 sequence (looked up) with M10K, Y336F

[3] = target: the molecule itself; assay: cryo-EM structure; cTOP3B mixed with a DNA bubble (11-nt strand opposite 13 unmatched nucleotides) at about 1:1; species with two cTOP3B on one DNA bubble, ~4.3 Å map from 63,000 particles
[4] = target: T3, human full-length TOP3B(Y336F) (human, UniProt O95985 1-862, Y336F); assay: cryo-EM structure; full-length TOP3B(Y336F)-TDRD3(1-190 aa) with a DNA mismatch bubble or a short R-loop substrate; cryo-EM volumes; conditions: both partners purified
T3 construct: DNA topoisomerase 3-beta (TOP3B), human, full length; residues 1-717 resolved in the apo map; not shown: His8, N-terminal, cleaved; MBP, N-terminal, cleaved
T3 sequence (looked up): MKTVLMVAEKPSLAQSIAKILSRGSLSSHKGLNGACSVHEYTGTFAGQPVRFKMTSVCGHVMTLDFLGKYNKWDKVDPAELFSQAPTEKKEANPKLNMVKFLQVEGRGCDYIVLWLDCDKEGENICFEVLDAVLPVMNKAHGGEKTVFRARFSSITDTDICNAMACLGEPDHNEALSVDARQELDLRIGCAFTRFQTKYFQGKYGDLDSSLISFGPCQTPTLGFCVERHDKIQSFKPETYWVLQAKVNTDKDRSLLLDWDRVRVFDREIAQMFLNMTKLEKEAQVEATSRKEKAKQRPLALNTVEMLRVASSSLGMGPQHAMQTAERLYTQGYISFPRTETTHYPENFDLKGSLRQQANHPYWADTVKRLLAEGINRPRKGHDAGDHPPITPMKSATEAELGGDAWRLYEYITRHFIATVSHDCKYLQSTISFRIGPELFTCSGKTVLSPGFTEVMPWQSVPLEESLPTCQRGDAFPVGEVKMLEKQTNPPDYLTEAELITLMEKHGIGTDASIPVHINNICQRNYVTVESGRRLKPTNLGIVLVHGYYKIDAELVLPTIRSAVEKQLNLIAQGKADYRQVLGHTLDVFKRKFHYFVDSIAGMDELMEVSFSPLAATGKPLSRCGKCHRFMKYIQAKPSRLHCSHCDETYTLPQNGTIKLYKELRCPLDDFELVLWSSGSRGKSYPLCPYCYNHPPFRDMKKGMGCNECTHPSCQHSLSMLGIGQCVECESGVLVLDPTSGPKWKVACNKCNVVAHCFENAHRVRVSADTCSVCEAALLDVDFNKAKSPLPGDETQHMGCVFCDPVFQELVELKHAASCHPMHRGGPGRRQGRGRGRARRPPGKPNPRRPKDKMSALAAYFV

binding result [1]: binds
binding result [2]: binds
B1: N-terminal fragment of human TDRD3 (1-171 aa) containing its DUF domain and OB-fold (domain or fragment, UniProt Q9H7E2 1-171, looked up)
chain: MLRLQMTDGHISCTAVEFSYMSKISLNTPPGTKVKLSGIVDIKNGFLLLNDSNTTVLGGEVEHLIEKWELQRSLSKHNRSNIGTEGGPPPFVPFGQKCVSHVQVDSRELDRRKTLQVTMPVKPTNDNDEFEKQRTAAIAEVAKSKETKTFGGGGGGARSNLNMNAAGNRNR
notes: Tudor domain-containing protein 3 (TDRD3), human, residues 1-171 (DUF domain and OB-fold); also called TDRD3 chain of cTOP3B; OB (in TOP3Bcore-OB); not shown: His8, N-terminal, cleaved; MBP, N-terminal, cleaved

B2: human TOP3Bcore (1-612 aa), wild type (domain or fragment, UniProt O95985 1-612, looked up)
chain: T1 sequence (looked up) with M10K
notes: DNA topoisomerase 3-beta (TOP3B), human, core, residues 1-612; In the DNA post-cleavage complex the catalytic Y336 is covalently linked to the DNA scissile phosphate (PTR336); Tags removed by PreScission Protease before SEC; also called hsTOP3Bcore(1-612AA); TOP3B chain of cTOP3B; not shown: His8, N-terminal, cleaved; MBP, N-terminal, cleaved
binding result [3]: binds

binding result [4]: binds
B3: human TDRD3(1-190 aa) (domain or fragment, UniProt Q9H7E2 1-190, looked up)
chain: MLRLQMTDGHISCTAVEFSYMSKISLNTPPGTKVKLSGIVDIKNGFLLLNDSNTTVLGGEVEHLIEKWELQRSLSKHNRSNIGTEGGPPPFVPFGQKCVSHVQVDSRELDRRKTLQVTMPVKPTNDNDEFEKQRTAAIAEVAKSKETKTFGGGGGGARSNLNMNAAGNRNREVLQKEKSTKSEGKHEGVY
notes: Tudor domain-containing protein 3 (TDRD3), human, residues 1-190; not shown: His8, N-terminal, cleaved; MBP, N-terminal, cleaved
